Residue numbers refer to the chain shown, from its start. Names and notes keep the numbering of the source.
B1: NusA-tagged FoxP3^forkhead (domain or fragment, mouse, UniProt Q99JB6 336-423, looked up)
chain: MRPPFTYATLIRWAILEAPERQRTLNEIYHWFTRMFAYFRNHPATWKNAIRHNLSLHKCFVRVESEKGAVWTVDEFEFRKKRSQRPNK
notes: FoxP3, mouse, forkhead domain, residues 336-423; NusA (60 kDa) kept for SEC-MALS; also called isolated FoxP3 forkhead; source: E. coli BL21(DE3), purified (Ni-NTA, Superdex 200), HRV3C cleavage omitted; not shown: His6, N-terminal, kept; NusA, N-terminal, kept
B2: FoxP3^forkhead C394S T368C (swap dimer-specific X-linking construct) (domain or fragment, mouse, UniProt Q99JB6 336-423, looked up)
chain: B1 chain with T33C, C59S
notes: FoxP3, mouse, forkhead, residues 336-423 with C394S and T368C; source: E. coli BL21(DE3), purified (Ni-NTA, HRV3C cleavage, Superdex 75); not shown: His6, N-terminal, cleaved; NusA, N-terminal, cleaved
B3: GST-tagged Runx1 (residue 371-451) (domain or fragment, mouse, UniProt Q03347 371-451, looked up)
chain: GSPSYHLYYGASAGSYQFSMVGGERSPPRILPPCTNASTGAALLNPSLPSQSDVVETEGSHSNSPTNMPPARLEEAVWRPY
notes: cloned into pGEX-6P-1; also called Runx1^ΔN; source: E. coli BL21(DE3), purified (Ni-NTA, Superdex 200)
B4: NusA-tagged FoxP3^ΔN (domain or fragment, mouse, UniProt Q99JB6 188-423, looked up)
chain: GSYPLLANGVCKWPGCEKVFEEPEEFLKHCQADHLLDEKGKAQCLLQREVVQSLEQQLELEKEKLGAMQAHLAGKMALAKAPSVASMDKSSCCIVATSTQGSVLPAWSAPREAPDGGLFAVRRHLWGSHGNSSFPEFFHNMDYFKYHNMRPPFTYATLIRWAILEAPERQRTLNEIYHWFTRMFAYFRNHPATWKNAIRHNLSLHKCFVRVESEKGAVWTVDEFEFRKKRSQRPNK
notes: FoxP3, mouse, ZF, CC, RBR and forkhead, residues 188-423; source: E. coli BL21(DE3), purified (Ni-NTA, Superdex 200), HRV3C cleavage omitted; not shown: His6, N-terminal, kept; NusA, N-terminal, kept
B5: NusA-tagged FoxP3^RBR-forkhead R337Q (domain or fragment, mouse, UniProt Q99JB6 284-423, looked up)
chain: TSTQGSVLPAWSAPREAPDGGLFAVRRHLWGSHGNSSFPEFFHNMDYFKYHNMQPPFTYATLIRWAILEAPERQRTLNEIYHWFTRMFAYFRNHPATWKNAIRHNLSLHKCFVRVESEKGAVWTVDEFEFRKKRSQRPNK
notes: FoxP3, mouse, RBR-forkhead, residues 284-423 with the IPEX mutation R337Q; R337Q is a mutation of human IPEX patients, here put into the mouse protein; also called R337Q FoxP3^RBR-forkhead; FoxP3^RBR-forkhead with R337Q; source: E. coli BL21(DE3), purified (Ni-NTA, Superdex 200), HRV3C cleavage omitted; not shown: His6, N-terminal, kept; NusA, N-terminal, kept
B6: NusA-tagged FoxP3^RBR-forkhead Y373V (domain or fragment, mouse, UniProt Q99JB6 284-423, looked up)
chain: B5 chain with Q54R, Y90V
notes: FoxP3, mouse, RBR-forkhead, residues 284-423 with the IPEX mutation Y373V; Y373V is a mutation of human IPEX patients, here put into the mouse protein; also called Y373V FoxP3^RBR-forkhead; source: E. coli BL21(DE3), purified (Ni-NTA, Superdex 200), HRV3C cleavage omitted; not shown: His6, N-terminal, kept; NusA, N-terminal, kept

Tests used:
[1] = biological target: the molecule itself; assay: SEC-MALS; NusA-fused proteins on Superdex 200 Increase 10/300; 20 mM Tris pH 7.5, 500 mM NaCl, 2 mM DTT; miniDAWN MALS and Optilab dRI detectors
[2] = biological target: the molecule itself; assay: cross-linking; 2 μM FoxP3^forkhead with 100 μM BMOE in 1x PBS, 1 h at 25°C, quenched with 10 mM DTT; SDS-PAGE, Krypton stain
[3] = biological target: T1, MBP-tagged FoxP3^RBR-forkhead (mouse, UniProt Q99JB6 284-423); assay: pull-down; MBP pull-down: MBP-FoxP3^RBR-forkhead 1 μM with GST-Runx1(371-451) 0.5 μM, with or without 2 μM DNA (IR-FKHM^4g or single FKHM), 30 min at room temperature in RIPA buffer; details: both partners purified
T1 construct: FoxP3, mouse, RBR-forkhead, residues 284-423; cloned into a modified pMAL-c2 vector; also called MBP-FoxP3^RBR-forkhead; His6-MBP fused FoxP3^RBR-forkhead; source: E. coli BL21(DE3), purified (Ni-NTA, Superdex 200)
T1 sequence (looked up): B5 chain with Q54R

Row | Binder | stoichiometry N [1] | also measured
1 | B1 | 2 | –
2 | B2 | – | binding result [2]: binds
3 | B3 | – | binding result [3]: binds
4 | B4 | 2 | –
5 | B5 | 2 | –
6 | B6 | 4 | –

From doi:10.1101/2022.02.08.479534, “FoxP3 can fold into two distinct dimerization states with divergent functional implications for T cell homeostasis” (bioRxiv, 2022)
